Experimental data reported in patent publication US20020133001A1, “Therapeutic agents and methods of use thereof for treating an amyloidogenic disease” (Praecis Pharmaceuticals Inc., priority 2000, published 2002).

How the values were obtained:
[1] = target: T1, Aβ fibrils (aged Aβ 1-40) (Homo sapiens, UniProt P05067); assay: Fibril binding assay; conditions: compound at 2 μM-200 fM dilutions; FIG. 9
T1 construct: 200 μM Aβ 1-40 peptide solution; purchased Bachem (Torrance, Calif.)
Experimental: The ability of a compound of the invention to modulate (e.g., inhibit or promote) the aggregation of natural β-AP when combined with the natural β-AP was examined using the Fibril binding assay. Natural β-AP (β-AP1-40) for use in the aggregation assays is commercially available from Bachem (Torrance, Calif.).
The following materials are needed for the Fibril binding assay: Millipore multifilter apparatus; 12×75 glass tubes; GF/F 25 mm glass filters; PBS/0.1% tween 20 at 4° C. (PBST); Aβ fibrils; radioactive compound; nonradioactive compound; Eppendorf repeat pipettor with tips; labels; forceps; and vacuum.
In this assay, each sample was run in triplicate. […]
The radioactively labeled compound was prepared using standard radioactive safety protocols by making a dilution into a PBS/0.1% tween-20 solution such that there was a final concentration of 20,000 dpm per 100 μL. […] The samples were covered with parafilm and incubated at 37° C. inside plastic radioactivity bags overnight.
To filter the samples, the filters were pre-wetted in a small volume of PBST. […] One minute counts were recorded, the data was plotted, and the Prism program (GraphPAD) was used to analyze the graph, according to the manufacturer's instructions.

amyloid plaques [2] = assay: Immunohistochemistry: staining of amyloid plaques in brain sections with conditioned medium containing fusion proteins; assay type: binding; conditions: 20-22 week mice transgenic for Swedish mutation APP and presenilin M146L; COS conditioned medium; developed with anti-mouse antibody
amyloid plaques, sequence (P05067 672-711 limits assumed): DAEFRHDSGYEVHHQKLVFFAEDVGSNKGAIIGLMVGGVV
Experimental: Twenty micron serial coronal brain sections were prepared from 20-22 week mice transgenic for both the Swedish mutation of amyloid precursor protein and presenilin M146L (Ref.). All incubations were performed at room temperature. Sections were washed once in 100 mM Tris, pH 7.4 (Tris buffer), incubated in 70% formic acid for 3 minutes, then washed three times in Tris buffer. Endogenous peroxidase activity was blocked by incubating for 20 minutes in 10% methanol, 3% hydrogen peroxide in 40 mM Tris, pH 7.4. Sections were washed three times in Tris buffer then incubated in 0.85% NaCl, 0.1% Triton X-100, 100 mM Tris pH 7.4 (Tris buffer A) for 5 minutes followed by […]) for 15 minutes. Sections were incubated overnight in conditioned medium from cells expressing secreted fusion proteins or anti-β-amyloid polyclonal antibody diluted 1/1000 in Tris buffer B. Sections were washed twice in Tris buffer A and once in Tris buffer B then incubated with biotin-conjugated anti-mouse antibody raised in donkey from Jackson Laboratories diluted 1/500 in Tris buffer A for 1 hour. Sections were washed twice in Tris buffer A and once in Tris buffer B then incubated with avidin-conjugated horse radish peroxidase using the ABC Immunohistochemistry kit from Vector Laboratories. […]

amyloid plaques [3] = assay: In vivo clearing of amyloid plaques in a mouse model of Alzheimer's disease; conditions: direct infusion into the cerebral cortex in one hemisphere; APP Swedish/presenilin M146L transgenic mouse
Experimental: The ability of Aβ(16-30)-Fc to clear amyloid plaques in a mouse model of Alzheimer's disease was assessed. The fusion protein was administered to a mouse transgenic for both the Swedish mutation of amyloid precursor protein and presenilin M146L by direct infusion into the cerebral cortex in one hemisphere. The mouse was sacrificed and the amount of amyloid in brain sections was determined by Thioflavin S staining.

T1 sequence (P05067 672-711): as the sequence (P05067 672-711 limits assumed) above

“PPI-1019: compound tested in the Fibril binding assay; structure not given” was tested, and the “inhibition of Aβ aggregation (Fibril binding assay)” value [1] was “effective inhibitors of Aβ aggregation”.

B1: Fc domain without a β-amyloid fragment: control protein: mouse IgG1 Fc region with no amyloid binding sequence (protein)
chain: VPRDCGCKPCICTVPEVSSVFIFPPKPKDVLTITLTPKVTCVVVDISKDDPEVQFSWFVDDVEVHTAQTQPREEQFNSTFRSVSELPIMHQDWLNGKEFKCRVNSAAFPAPIEKTISKTKGRPKAPQVYTIPPPKEQMAKDKVSLTCMITDFFPEDITVEWQWNGQPAENYKNTQPIMNTNGSYFVYSKLNVQKSNWEAGNTFTCSVLHEGLHNHHTEKSLSHSPGK
In the case of B1, the “staining of amyloid plaques in coronal brain sections” value (amyloid plaques [2]) is reported as “No amyloid plaques were detected” and the “plaque burden at the site of infusion compared to the control hemisphere (Thioflavin S staining)” value (amyloid plaques [3]) is reported as “no difference”.
